In FireProtDB (doi:10.1074/jbc.270.30.17712):
Values joined by “and” are separate entries in the source; they are usually repeats but may differ in a detail not shown here. Identical values can stand only once.

B1: Tryptophan synthase alpha chain, P0A877 (parent)
chain: MERYESLFAQLKERKEGAFVPFVTLGDPGIEQSLKIIDTLIEAGADALELGIPFSDPLADGPTIQNATLRAFAAGVTPAQCFEMLALIRQKHPTIPIGLLMYANLVFNKGIDEFYAQCEKVGVDSVLVADVPVEESAPFRQAALRHNVAPIFICPPNADDDLLRQIASYGRGYTYLLSRAGVTGAENRAALPLNHLVAKLKEYNAAPPLQGFGISAPDQVKAAIDAGAAGAISGSAIVKIIEQHINEPEKMLAALKVFVQPMKAATRS

Variants of: B1
Settings: Escherichia coli (strain K12); pH 7.8; 23 °C; Urea; Absorbance; Potassium phosphate 10 mM; transition: 3; reversible: yes; structure 1WQ5; whole UniProt chain shown

Variant	ddG of mutation (higher = less stable)	denaturant m value	denaturant midpoint (higher = more stable)	unfolding free energy
F139W F258W	0.8 kcal/mol	2.1 kcal/mol/M and 1.3 kcal/mol/M	2.67 M and 3.51 M	5.6 kcal/mol and 4.4 kcal/mol
F258W	1.4 kcal/mol and 1 kcal/mol	1.9 kcal/mol/M and 1.2 kcal/mol/M	2.68 M and 3.58 M	5 kcal/mol and 4.2 kcal/mol
F139W	0.7 kcal/mol and 0.6 kcal/mol	2.3 kcal/mol/M and 1.2 kcal/mol/M	2.46 M and 3.8 M	5.7 kcal/mol and 4.6 kcal/mol
